Measured values from patent US20250382344A1, “Soluble GLP1/GIP/NPY2 Receptor Triple Agonists” (Boehringer Ingelheim International GmH, priority 2024, published 2025).
*1 amine or outer side, *2 acyl side, *3 side chain or, on linkers, in order; H or OH if unused. Where no end group is shown, it is not given here. Side-chain parts run from the residue outwards. [ ]: non-standard residue; d: D form. The star is where a group is joined. C20 diacid = O=C(O)CCCCCCCCCCCCCCCCCCC(=O)*; γGlu = O=C(O)[C@H](CCC(=O)[*:2])N[*:1]; εLys = N[C@@H](CCCCN[*:1])C(=O)[*:2]; TRX = not defined here; Aib = CC(C)(N)C(=O)O

T1: human neuropeptide Y2 receptor (human, UniProt P49146 1-381)
T1 sequence (looked up): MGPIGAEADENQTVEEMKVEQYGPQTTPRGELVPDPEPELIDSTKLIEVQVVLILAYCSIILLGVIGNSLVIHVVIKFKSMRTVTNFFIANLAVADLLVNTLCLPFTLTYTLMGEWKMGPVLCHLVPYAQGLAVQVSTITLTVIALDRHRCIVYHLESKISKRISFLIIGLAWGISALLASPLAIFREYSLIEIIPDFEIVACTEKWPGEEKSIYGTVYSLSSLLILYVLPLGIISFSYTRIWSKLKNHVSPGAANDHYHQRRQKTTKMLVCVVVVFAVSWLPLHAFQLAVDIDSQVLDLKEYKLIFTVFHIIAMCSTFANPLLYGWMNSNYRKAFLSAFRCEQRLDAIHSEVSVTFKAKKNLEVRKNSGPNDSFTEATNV

T2: human GIP receptor (human, UniProt P48546 22-466)
T2 sequence (looked up): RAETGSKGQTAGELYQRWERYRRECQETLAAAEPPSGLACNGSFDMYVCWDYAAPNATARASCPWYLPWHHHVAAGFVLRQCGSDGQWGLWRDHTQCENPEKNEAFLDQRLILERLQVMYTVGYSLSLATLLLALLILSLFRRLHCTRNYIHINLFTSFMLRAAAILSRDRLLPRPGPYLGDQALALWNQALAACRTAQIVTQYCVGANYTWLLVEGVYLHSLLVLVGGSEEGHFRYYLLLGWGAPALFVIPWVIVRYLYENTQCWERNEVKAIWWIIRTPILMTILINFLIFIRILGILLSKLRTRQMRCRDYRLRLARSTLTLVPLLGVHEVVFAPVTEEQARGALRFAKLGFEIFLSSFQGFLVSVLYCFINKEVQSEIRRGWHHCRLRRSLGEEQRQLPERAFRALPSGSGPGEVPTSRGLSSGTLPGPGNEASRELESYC


Tests used:
Assay in all cases: cell-based or functional assay
[1] = target: T1, human neuropeptide Y2 receptor
human GIP receptor = target: T2, human GIP receptor
human GLP-1 receptor = human GLP-1 receptor (human, UniProt P43220 24-463)

| Binder | EC50, CreLuc reporter, 0.5% hP [1] [nM] | EC50, CreLuc reporter, 100% hP [1] [nM] | EC50, CreLuc reporter, 0.5% hP (human GIP receptor) [nM] | EC50, CreLuc reporter, 100% hP (human GIP receptor) [nM] | EC50, CreLuc reporter, 0.5% hP (human GLP-1 receptor) [nM] | EC50, CreLuc reporter, 100% hP (human GLP-1 receptor) [nM] |
| --- | --- | --- | --- | --- | --- | --- |
| Y[Aib]EGTFTSDLSI[Aib]LEKQAQ[Aib]AFVRHLINK([εLys-γGlu-γGlu-γGlu-γGlu-γGlu-γGlu-γGlu-C20 diacid])[Aib]TRQRY-NH2 [Compound 135] | 18.8 | 47.8 | 0.5 | 5.8 | – | – |
| Y[Aib]EGTFTSDYSI[Aib]LEKQAQ[Aib]AFVRHLINK([γGlu-γGlu-γGlu-γGlu-γGlu-γGlu-TRX-C20 diacid])[Aib]TRQRY-NH2 (reading uncertain) [Compound 133] | 44.9 | 246 | – | 3.4 | – | – |
| YXEGTFTSDYSIXLEKQAQXAFVRHLINKXTRQRY (Aib at 2, 13, 20, 30; Lys29 epsilon-amino: C20DA-gGlu-gGlu-gGlu-gGlu-gGlu-AHX; C-terminal amide) [Compound 167] | 13.3 | 267 | – | – | 1 | 18.7 |
| YXEGTFTSDYSIXLEKQAQXEFVRHLINKXTRQRY (Aib at 2, 13, 20, 30; Lys29 epsilon-amino: C18DA-gGlu-gGlu-gGlu-gGlu-gGlu-gGlu-eLys; C-terminal amide) [Compound 145] | – | 94.2 | – | – | 0.5 | 1.8 |
| YXEGTFTSDYSIXLEKQAEXAFVRHLINKXTRQRY (Aib at 2, 13, 20, 30; Lys29 epsilon-amino: C20DA-gGlu-gGlu-gGlu-gGlu-gGlu-gGlu-eLys; C-terminal amide) [Compound 104] | 17.5 | 129 | – | – | 2 | 12.9 |
| YXEGTFTSDYSIXLEKQAQXAFVRHLINKATRQRY (Aib at 2, 13, 20; Lys29 epsilon-amino: C18DA-gGlu-gGlu-gGlu-gGlu-gGlu-gGlu-eLys; C-terminal amide) [Compound 159] | 11.5 | 57.5 | 0.2 | – | – | – |
| YXEGTFTSDYSIXLEKQAQXAFVRHAINKXTRQRY (Aib at 2, 13, 20, 30; Lys29 epsilon-amino: C18DA-gGlu-gGlu-gGlu-gGlu-gGlu-gGlu-eLys; C-terminal amide) [Compound 139] | – | 22.7 | 12.2 | 22.3 | – | – |
| YXEGTFTSDYSIXLEKQAQXAFVRHLINKXTRQRY (Aib at 2, 13, 20, 30; Lys29 epsilon-amino: C18DA-gGlu-gGlu-gGlu-gGlu-gGlu-OEG; C-terminal amide) [Compound 140] | 22 | 141 | – | 8 | – | – |
| YXEGTFTSDYSIXLEKQAQXEFVRHLINKXTRQRY (Aib at 2, 13, 20, 30; Lys29 epsilon-amino: C20DA-gGlu-gGlu-gGlu-gGlu-gGlu-gGlu-eLys; C-terminal amide) [Compound 149] | – | 166 | – | – | – | 3.3 |
| YXEGTFTSDYSIXLDKQAQXAFVRHLINKXTRQRY (Aib at 2, 13, 20, 30; Lys29 epsilon-amino: C18DA-gGlu-gGlu-gGlu-gGlu-gGlu-gGlu-eLys; C-terminal amide) [Compound 105] | 19.9 | 49.6 | – | – | 0.3 | 3.4 |
| YXEGTFTSDYSIXLEKQAAXAFVRHLINKXTRQRY (Aib at 2, 13, 20, 30; Lys29 epsilon-amino: C18DA-gGlu-gGlu-gGlu-gGlu-gGlu-gGlu-eLys; C-terminal amide) [Compound 111] | 53.6 | 77.4 | – | – | 4.7 | 6.1 |
| YXEGTFTSDYSIXLEKQAQXAFVRHLINKLTRQRY (Aib at 2, 13, 20; Lys29 epsilon-amino: C18DA-gGlu-gGlu-gGlu-gGlu-gGlu; C-terminal amide) [Compound 158] | 26 | 149 | 0.5 | 14.4 | – | – |
| YXEGTFTSDYSIELEKQAQXAFVRHLINKXTRQRY (Aib at 2, 20, 30; Lys29 epsilon-amino: C18DA-gGlu-gGlu-gGlu-gGlu-gGlu-gGlu-eLys; C-terminal amide) [Compound 160] | 15.5 | 28.5 | – | – | 7.1 | 27 |
| YXEGTFTSDYSIXLEKQAQYAFVRHLINKXTRQRY (Aib at 2, 13, 30; Lys29 epsilon-amino: C18DA-gGlu-gGlu-gGlu-gGlu-gGlu-gGlu-eLys; C-terminal amide) [Compound 151] | 32.6 | 89.8 | 0.5 | 5.6 | – | – |
| YXEGTFTSDYSIXLEKQAQXAFVRHLINKXTRQRY (Aib at 2, 20, 30; aMeL at 13; Lys29 epsilon-amino: C20DA-gGlu-gGlu-gGlu-gGlu-gGlu-gGlu-eLys; C-terminal amide) [Compound 150] | – | 90.7 | – | 2.8 | – | – |
